Reference: article doi:10.1101/2022.07.31.502239

Target: T1, mmLRRC8A with C-terminal EGFP and HA-tag (Mus musculus), Q80WG5
T1 chain: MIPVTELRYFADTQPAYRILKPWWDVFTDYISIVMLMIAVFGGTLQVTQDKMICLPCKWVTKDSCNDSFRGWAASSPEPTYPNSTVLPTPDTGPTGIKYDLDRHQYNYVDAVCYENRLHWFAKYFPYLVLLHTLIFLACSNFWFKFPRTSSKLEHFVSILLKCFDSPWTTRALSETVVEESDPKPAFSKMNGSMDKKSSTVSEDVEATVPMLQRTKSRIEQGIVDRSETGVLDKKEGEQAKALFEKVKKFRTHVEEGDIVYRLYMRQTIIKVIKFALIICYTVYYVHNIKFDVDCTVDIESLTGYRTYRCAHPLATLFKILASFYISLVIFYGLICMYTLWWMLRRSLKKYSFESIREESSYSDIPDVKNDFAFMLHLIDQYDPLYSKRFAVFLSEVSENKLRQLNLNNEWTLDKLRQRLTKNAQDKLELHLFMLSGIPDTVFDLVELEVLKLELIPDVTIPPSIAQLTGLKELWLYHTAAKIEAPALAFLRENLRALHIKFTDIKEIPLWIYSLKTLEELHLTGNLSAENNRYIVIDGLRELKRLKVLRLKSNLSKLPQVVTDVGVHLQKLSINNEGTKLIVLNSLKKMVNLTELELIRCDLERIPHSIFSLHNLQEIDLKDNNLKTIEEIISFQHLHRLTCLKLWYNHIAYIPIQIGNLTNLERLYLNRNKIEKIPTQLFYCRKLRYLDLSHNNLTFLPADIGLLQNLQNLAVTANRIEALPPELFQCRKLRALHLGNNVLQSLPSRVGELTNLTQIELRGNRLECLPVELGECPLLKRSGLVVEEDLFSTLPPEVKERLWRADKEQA
Test: single molecule pulldown with stepwise photobleaching subunit counting
Conditions: remark: other sources report otherwise

B1: mmLRRC8A with C-terminal EGFP and HA-tag, Q80WG5 1-810 (natural protein)
chain: T1 chain
stoichiometry N: 6
